Measured values reported in the supplement of paper PMC6757056.
± gives the standard deviation of the averaged measurements.

B1: library; a variant is named by its letters at N, in order (parent)
chain: GCUGUCACCGAGAAACUGUGAAGUAUAUCUUAAACCUGGGCACUUAAAAGAUAUAUGGAGUUAGUAGUGCAACCUGCUCGGUCUGAUGAGUCCNNNNNNGGACGAAACAGC

How the values were obtained:
cyclic di-GMP [1] = variants of: B1; assay: FACS-Seq fitted mean relative fluorescence mCherry/BFP without ligand (log10 relative fluorescence); HEK293T; ligand: cyclic di-GMP (c-di-GMP-II aptamer); higher = higher reporter protein expression; conditions: ligand present: no
Method in brief: (§1)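 Fluorescence figures are normalized fitted normal means of sequenced bin counts. Enriched, lentivirally transduced HEK293T libraries with a ribozyme-switch mCherry reporter and EF1α-BFP were held 48 h with or without ligand, then sorted into 6 mCherry/BFP bins. PCR-amplified, barcoded genomic DNA from each bin was sequenced on MiSeq. Means of log10(mCherry/BFP) were scaled to five spiked-in control ribozymes.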

cyclic di-GMP [2] = variants of: B1; assay: normalized RNA/DNA level without ligand (relative to sTRSVctl = 100) (log10 (% of sTRSVctl)); HEK293T; ligand: cyclic di-GMP (c-di-GMP-II aptamer); higher = less ribozyme self-cleavage, higher mRNA level; conditions: reporter: mCherry (pCS4076), ligand present: no
Experimental: (§2)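 Hammerhead (sTRSV) ribozyme switch libraries with a ligand aptamer grafted on stem I and a randomized N4-6 loop II, cloned into the 3' UTR of mCherry and transiently transfected into HEK293T cells; RNA-Seq 72 h post transfection with ligand added 1 h before transfection; RNA read count / plasmid DNA read count normalized to the non-cleaving sTRSVctl (x100), log10; sequences with >100 DNA reads. FACS-Seq: lentiviral library sorted into 6 bins after 48 h ligand, log-normal fit mean of mCherry/BFP scaled to controls. Printed sequences are partial switch sequences.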

cyclic di-GMP [3] = variants of: B1; assay: FACS-Seq fitted mean relative fluorescence mCherry/BFP with ligand (log10 relative fluorescence); HEK293T; ligand: cyclic di-GMP (c-di-GMP-II aptamer); ligand concentration (+) FACS-Seq: 1 mM; higher = higher reporter protein expression; conditions: ligand present: yes
Method in brief: as §1

cyclic di-GMP [4] = variants of: B1; assay: normalized RNA/DNA level with ligand (relative to sTRSVctl = 100) (log10 (% of sTRSVctl)); HEK293T; ligand: cyclic di-GMP (c-di-GMP-II aptamer); ligand concentration (+) RNA-Seq: 1 mM; higher = less ribozyme self-cleavage, higher mRNA level; conditions: reporter: mCherry (pCS4076), ligand present: yes
Experimental: as §2

GCUGUCACCGAGAAACUGUGAAGUAUAUCUUAAACCUGGGCACUUAAAAGAUAUAUGGAGUUAGUAGUGCAACCUGCUCGGUCUGAUGAGUCCACCAUAGGACGAAACAGC [ACCAUA]
FACS-Seq fitted mean (log10) (cyclic di-GMP [1]): -0.294 ± 0.15 | normalized RNA/DNA level without ligand (log10) (cyclic di-GMP [2]): 1.51 ± 0.065 | FACS-Seq fitted mean (log10) (cyclic di-GMP [3]): 0.0129 ± 0.043 | normalized RNA/DNA level with ligand (log10) (cyclic di-GMP [4]): 1.71 ± 0.11

GCUGUCACCGAGAAACUGUGAAGUAUAUCUUAAACCUGGGCACUUAAAAGAUAUAUGGAGUUAGUAGUGCAACCUGCUCGGUCUGAUGAGUCCACCCUCGGACGAAACAGC [ACCCUC]
FACS-Seq fitted mean (log10) (cyclic di-GMP [1]): -0.504 ± 0.046 | normalized RNA/DNA level without ligand (log10) (cyclic di-GMP [2]): 1.784 ± 0.015 | FACS-Seq fitted mean (log10) (cyclic di-GMP [3]): -0.217 ± 0.028 | normalized RNA/DNA level with ligand (log10) (cyclic di-GMP [4]): 1.91 ± 0.057

GCUGUCACCGAGAAACUGUGAAGUAUAUCUUAAACCUGGGCACUUAAAAGAUAUAUGGAGUUAGUAGUGCAACCUGCUCGGUCUGAUGAGUCCACAGAAGGACGAAACAGC [ACAGAA]
FACS-Seq fitted mean (log10) (cyclic di-GMP [1]): -0.5622 ± 0.0028 | normalized RNA/DNA level without ligand (log10) (cyclic di-GMP [2]): 1.29 ± 0.15 | FACS-Seq fitted mean (log10) (cyclic di-GMP [3]): -0.287 ± 0.057 | normalized RNA/DNA level with ligand (log10) (cyclic di-GMP [4]): 1.47 ± 0.071

GCUGUCACCGAGAAACUGUGAAGUAUAUCUUAAACCUGGGCACUUAAAAGAUAUAUGGAGUUAGUAGUGCAACCUGCUCGGUCUGAUGAGUCCGCUCUAGGACGAAACAGC [GCUCUA]
FACS-Seq fitted mean (log10) (cyclic di-GMP [1]): -0.242 ± 0.011 | normalized RNA/DNA level without ligand (log10) (cyclic di-GMP [2]): 1.64 ± 0.039 | FACS-Seq fitted mean (log10) (cyclic di-GMP [3]): 0.0781 ± 0.02 | normalized RNA/DNA level with ligand (log10) (cyclic di-GMP [4]): 1.8 ± 0.025

GCUGUCACCGAGAAACUGUGAAGUAUAUCUUAAACCUGGGCACUUAAAAGAUAUAUGGAGUUAGUAGUGCAACCUGCUCGGUCUGAUGAGUCCUCACGAGGACGAAACAGC [UCACGA]
FACS-Seq fitted mean (log10) (cyclic di-GMP [1]): -0.203 ± 0.066 | normalized RNA/DNA level without ligand (log10) (cyclic di-GMP [2]): 1.632 ± 0.0055 | FACS-Seq fitted mean (log10) (cyclic di-GMP [3]): 0.146 ± 0.017 | normalized RNA/DNA level with ligand (log10) (cyclic di-GMP [4]): 1.81 ± 0.091

GCUGUCACCGAGAAACUGUGAAGUAUAUCUUAAACCUGGGCACUUAAAAGAUAUAUGGAGUUAGUAGUGCAACCUGCUCGGUCUGAUGAGUCCCGAAAAGGACGAAACAGC [CGAAAA]
FACS-Seq fitted mean (log10) (cyclic di-GMP [1]): -0.423 ± 0.02 | normalized RNA/DNA level without ligand (log10) (cyclic di-GMP [2]): 1.26 ± 0.084 | FACS-Seq fitted mean (log10) (cyclic di-GMP [3]): -0.315 ± 0.07 | normalized RNA/DNA level with ligand (log10) (cyclic di-GMP [4]): 1.47 ± 0.1

GCUGUCACCGAGAAACUGUGAAGUAUAUCUUAAACCUGGGCACUUAAAAGAUAUAUGGAGUUAGUAGUGCAACCUGCUCGGUCUGAUGAGUCCCGAAGAGGACGAAACAGC [CGAAGA]
FACS-Seq fitted mean (log10) (cyclic di-GMP [1]): -0.38091 ± 0.00015 | normalized RNA/DNA level without ligand (log10) (cyclic di-GMP [2]): 1.37 ± 0.096 | FACS-Seq fitted mean (log10) (cyclic di-GMP [3]): -0.0195 ± 0.04 | normalized RNA/DNA level with ligand (log10) (cyclic di-GMP [4]): 1.65 ± 0.075

GCUGUCACCGAGAAACUGUGAAGUAUAUCUUAAACCUGGGCACUUAAAAGAUAUAUGGAGUUAGUAGUGCAACCUGCUCGGUCUGAUGAGUCCCCAUAAGGACGAAACAGC [CCAUAA]
FACS-Seq fitted mean (log10) (cyclic di-GMP [1]): -0.533 ± 0.16 | normalized RNA/DNA level without ligand (log10) (cyclic di-GMP [2]): 1.44 ± 0.14 | FACS-Seq fitted mean (log10) (cyclic di-GMP [3]): -0.252 ± 0.0063 | normalized RNA/DNA level with ligand (log10) (cyclic di-GMP [4]): 1.67 ± 0.079

GCUGUCACCGAGAAACUGUGAAGUAUAUCUUAAACCUGGGCACUUAAAAGAUAUAUGGAGUUAGUAGUGCAACCUGCUCGGUCUGAUGAGUCCUUUCUAGGACGAAACAGC [UUUCUA]
FACS-Seq fitted mean (log10) (cyclic di-GMP [1]): -0.278 ± 0.011 | normalized RNA/DNA level without ligand (log10) (cyclic di-GMP [2]): 1.75 ± 0.065 | FACS-Seq fitted mean (log10) (cyclic di-GMP [3]): -0.016 ± 0.035 | normalized RNA/DNA level with ligand (log10) (cyclic di-GMP [4]): 1.88 ± 0.11

GCUGUCACCGAGAAACUGUGAAGUAUAUCUUAAACCUGGGCACUUAAAAGAUAUAUGGAGUUAGUAGUGCAACCUGCUCGGUCUGAUGAGUCCCUCUCUGGACGAAACAGC [CUCUCU]
FACS-Seq fitted mean (log10) (cyclic di-GMP [1]): -0.0993 ± 0.11 | normalized RNA/DNA level without ligand (log10) (cyclic di-GMP [2]): 1.63 ± 0.06 | FACS-Seq fitted mean (log10) (cyclic di-GMP [3]): 0.163 ± 0.0032 | normalized RNA/DNA level with ligand (log10) (cyclic di-GMP [4]): 1.79 ± 0.13

GCUGUCACCGAGAAACUGUGAAGUAUAUCUUAAACCUGGGCACUUAAAAGAUAUAUGGAGUUAGUAGUGCAACCUGCUCGGUCUGAUGAGUCCCCAAGAGGACGAAACAGC [CCAAGA]
FACS-Seq fitted mean (log10) (cyclic di-GMP [1]): -0.572 ± 0.0069 | normalized RNA/DNA level without ligand (log10) (cyclic di-GMP [2]): 1.47 ± 0.074 | FACS-Seq fitted mean (log10) (cyclic di-GMP [3]): -0.208 ± 0.06 | normalized RNA/DNA level with ligand (log10) (cyclic di-GMP [4]): 1.69 ± 0.13

GCUGUCACCGAGAAACUGUGAAGUAUAUCUUAAACCUGGGCACUUAAAAGAUAUAUGGAGUUAGUAGUGCAACCUGCUCGGUCUGAUGAGUCCGUGUGCGGACGAAACAGC [GUGUGC]
FACS-Seq fitted mean (log10) (cyclic di-GMP [1]): -0.9793 ± 0.0011 | normalized RNA/DNA level without ligand (log10) (cyclic di-GMP [2]): 1.4 ± 0.12 | FACS-Seq fitted mean (log10) (cyclic di-GMP [3]): -0.724 ± 0.0079 | normalized RNA/DNA level with ligand (log10) (cyclic di-GMP [4]): 1.63 ± 0.09

GCUGUCACCGAGAAACUGUGAAGUAUAUCUUAAACCUGGGCACUUAAAAGAUAUAUGGAGUUAGUAGUGCAACCUGCUCGGUCUGAUGAGUCCGUUUGGGGACGAAACAGC [GUUUGG]
FACS-Seq fitted mean (log10) (cyclic di-GMP [1]): -0.428 ± 0.018 | normalized RNA/DNA level without ligand (log10) (cyclic di-GMP [2]): 1.62 ± 0.068 | FACS-Seq fitted mean (log10) (cyclic di-GMP [3]): -0.249 ± 0.089 | normalized RNA/DNA level with ligand (log10) (cyclic di-GMP [4]): 1.8 ± 0.13
